In patent publication CN110903389A (FUZHOU MAIXIN BIOTECHNOLOGY DEV CO LTD, dated 2020):

Target: T1, 重组GFAP蛋白 (人GFAP第292位至第432位氨基酸片段 + 组氨酸标签, 大肠杆菌表达) (human, UniProt P14136 292-432)
T1 construct: also called 重组GFAP蛋白片段; 免疫原; not shown: Histidine tag from vector pET28a
Assay: Indirect ELISA on coated recombinant GFAP protein. The affinity constant was calculated from the antibody concentration at half of the plateau OD450.

T1 sequence (P14136 292-432): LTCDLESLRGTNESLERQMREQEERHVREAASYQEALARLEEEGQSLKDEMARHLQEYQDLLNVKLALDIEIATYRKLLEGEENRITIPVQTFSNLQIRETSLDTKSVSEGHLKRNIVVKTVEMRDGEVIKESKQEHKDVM

Ka: 6.53e+09 M⁻¹
B1: 抗GFAP蛋白单克隆抗体(10G1G11H7) (antibody, V domains shown)
VH: EVQLQQSGAELVKPGASVKLSCTASGFNIKDTYMHWVKQRPEQGLEWIGRIDPANGKTKYDPKFQGKATITADTSSNTAYLQLSSLTSEDTAVYYCARRGIMTTVPFAYWGQGTLVTVSA
VL: DIVMTQAAPSVPVTPGESVSISCRSSKSLLHSNGNTYLYWFLQRPGQSPQLLIYRMSNLTSGVPDRFSGSGSGTAFTLRISRVEAEDVGVYYCMQHLEYPFTFGGGTKLEIK
